Eight sequences from the supplement of paper PMC12455559 can be followed below.

Data set [1] in a line: purified protein yield per well (BCA); higher = higher soluble expression. The procedure, abridged: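 Expression was done in E. coli C41(DE3), using 2 mL autoinduction cultures with 100 µg/mL kanamycin incubated at 37 °C for 2 h and at 18 °C for 40 h. Protein was purified on Ni-charged magnetic beads and released by SUMO protease cleavage. Yield of purified protein per well was measured with the Pierce Rapid Gold BCA kit; values below 25 ug (0.1 mg/mL) are below detection.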

The nature of data set [2]: PET hydrolysis, aromatic products released after 48 h (umol product/mg enzyme); higher = more PET depolymerization activity. The note with it: substrate: cryPow. The procedure: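 HTP-purified, SUMO-cleaved, tagless PET hydrolase candidates (5 ug, 1.43 mg/g PET) were incubated 48 h without shaking with 3.5 mg amorphous PET film (aFilm) or crystalline PET powder (cryPow) in 0.5 mL buffer: NaCitrate pH 4.5/5.5, NaPhosphate pH 6.5/7.5, glycine pH 8.5. Incubation was at 40 or 60 C. Aromatic products (TPA, MHET, BHET) in the supernatant were quantified by UV absorbance at 260/280 nm relative to buffer blanks and expressed per mg enzyme. LCC-ICCG was the positive control on every plate.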

In the case of “MHPTPDRAKVLPVNVSRGPAEPPAARSARPGGRSAPDGLRPGRRRPVPSSEQGATDVQSHPPTPANRRTRTVATLALALTLVGGAGAIAPTAHAAAGHERGPNPTSAALEASRGPFSVSSTTVSSLSASGFGGGTIYYPNDTGQGTFGGVIVAPGFTASRSTMAWLAERLASHGFVVFNIDTITRSDQPDSRGRQLLAAADHLAEESSPAVRSRLDAGRIGVMGHSMGGGGTLAAAESRPSLQAAVPLTPWHTDKSWGSVQVPTMIIGAENDSVAPVSSHAEPFYNSLSSAQEKAYLELNGASHFAPNSSNSTLAKYSIAWMKRFVDDDLRYDQFLCPAPGRSTRIEEYRSSCPH [TEP081]”, the “purified protein yield per well” value in data set [1] amounted to 35.7 µg. For the same sequence, the PET hydrolysis in data set [2] (40 °C, pH 4.5) is less than 3; in data set [2] (40 °C, pH 5.5), less than 3; in data set [2] (40 °C, pH 6.5), less than 3; in data set [2] (40 °C, pH 7.5), less than 3.
As for “QAPTRESLGAQGPYQVAYYSNFPAVQEFTAGTIYFPANKAQTFGAVAISPGFAERQENMSWWGRHLASHGFAVLTLDTNELRDDPAIRAEALMAALRVLSGESEREGSPLRGKIDTNRMAIMGHSMGGGGTLLAANTHSSELKAAIPFTPWQPDGDFSDVTVPTLIIAGEIDRVAPVNDHAWPHYQSLSASNPRLYLEIRGGNHFIANTAT [TEP038]”, the “purified protein yield per well” value in data set [1] was determined as 52.1 µg. Further, the PET hydrolysis in data set [2] (40 °C, pH 4.5) is less than 3; in data set [2] (40 °C, pH 5.5) it was less than 3; in data set [2] (40 °C, pH 6.5), less than 3; in data set [2] (40 °C, pH 7.5), less than 3.
Turning to “SNPTPTPTPTPTPTPTPGNNPFQRGPNPTLSFIEANSGPYSVRTSRVSSYTSGFGGGTIHYPTGQSGTMGAIVVIPGFVSAESSIEWWGPKLASHGFVVMTIDTNSGFDQPPSRARQINAALDYLVAQNRSSRSPVRGMIDTNRLGVVGWSMGGGGTLRVASEGRIKAAIPLAPWDTTSFRNVKAPTLIFACESDVIAPVGQHASPFYNELPSNISKAFVELNGGSHYCGNGGNSYNDVLSRFGVSWMKRFLDNDTRYSQFLCGPNHTSDRDISEYRGNCNY [ESM042]”, in data set [1], the “purified protein yield per well” value was found to be 73.3 µg. Further, the PET hydrolysis was less than 3 in data set [2] (40 °C, pH 4.5); less than 3 in data set [2] (40 °C, pH 5.5); less than 3 in data set [2] (40 °C, pH 6.5); less than 3 in data set [2] (40 °C, pH 7.5); less than 3 in data set [2] (60 °C, pH 4.5); less than 3 in data set [2] (60 °C, pH 5.5). Also, the PET hydrolysis in data set [2] (60 °C, pH 6.5) is less than 3; in data set [2] (60 °C, pH 7.5) it was less than 3.
In the case of “DQIGQAPTASNITGDGSFAVTSSAVSGQTGFGGGTVYYPTQTGTYPVVAIMPGFLELWDAIKWMGPRLASWGYVVVGVNPNSVFDLPDSRGSQLLAALNWAVGSAPSAVQSRADGTRRGVVGYSMGGGGTLEALSRDTSGKVLAGVAFSPWDTNQNWSTVRQPEFIVGAQNDTVAPPAQHAIPFYNSLAGPKTYVELAGADHLWPTSDNPTGSRAMVSWLKRWLNSDSRFTPFTCGFTGSAISASMSNAC [ESM047]”, the “purified protein yield per well” value in data set [1] stood at 48.3 µg. Moreover, the PET hydrolysis was 20 in data set [2] (40 °C, pH 4.5); 55 in data set [2] (40 °C, pH 5.5); 47 in data set [2] (40 °C, pH 6.5); 8 in data set [2] (40 °C, pH 7.5).
“DTGSHERGPDPTEQALEARSGPFDTDDERVSSLGASGFGGGTIYYPEDTSEGDFGAVALAPGYTASSTSYSSLAERIASHGFVVLAFDTNTRYDQPNSRGRQMESALEYLTEDSDVTDRIDTDRQAVSGHSMGGGGTLAAADDNPDLQAAVPLTPWHTQKSWSGMQVPTMIIGAENDSIASVRSHSIRFYESLPGSLEKGYAEVDGASHFAPNSNDDTVAKYTITWLKRFVDNDTRYEQFLCPPPDSGGWGDDLSDYRDSCPTG [DP052]”: the “purified protein yield per well” value in data set [1] was 36 µg. Moreover, the PET hydrolysis in data set [2] (40 °C, pH 5.5) was less than 3; in data set [2] (40 °C, pH 6.5), less than 3; in data set [2] (40 °C, pH 7.5), less than 3; in data set [2] (40 °C, pH 8.5), less than 3.
For the sequence “DSPYERGPDPTTSSIEASSGPFDVDEDSVSSWSVSGFGGGTVYYPEDDGQTYGGVVIAPGYTESSSAMAWLGEYLASHGFVAFNIDTNTRYDQPDSRGRQIEAALDYLAEDSDVSDLVDPNRLAAMGHSMGGGGTLAAAEDRPELKAAIPLTPWHTDKTWGGVTVPTMIIGAENDTIAPNSSHSIPFYNSLSTSTERAYVELDGEGHLVTSSRNTELASNSVSWLKVFVDEDDRYEQFLCPAPSTGWGSPYSDYRDSCPYI [DP033]”, the “purified protein yield per well” value in data set [1] was 31 µg. Further, the PET hydrolysis in data set [2] (40 °C, pH 5.5) was less than 3; in data set [2] (40 °C, pH 6.5), less than 3; in data set [2] (40 °C, pH 7.5), less than 3; in data set [2] (40 °C, pH 8.5), less than 3.
For the sequence “ATTAAAPAAAVRADSPYQRGPAPTEASVTAARGPFAIAQVTVPAGSGTGFNKGTIYYPTDTGQGTFGGVAVMPGFTSPQSVIQWLGPRLASQGFLVFTLDSLSLVDFPTARSQQLLAALDYLATRSTVRTRLDPNRLAVMGHSMGGGASLWAAQNRPSLKASVPLAPWETDTTWQGVRVPTMIIGGQADTVAPPATMAIPDYTSMTSAPEKAYLELRNGGHGAPATESPTVAKYALSWLKRFVDLDTRYDQFLCPAPAPTTAISQYRDTCPNG [DP058]”, in data set [1], the “purified protein yield per well” value worked out at 52 µg. Besides, the PET hydrolysis is less than 3 in data set [2] (40 °C, pH 5.5); less than 3 in data set [2] (40 °C, pH 6.5); less than 3 in data set [2] (40 °C, pH 7.5); less than 3 in data set [2] (40 °C, pH 8.5); less than 3 in data set [2] (60 °C, pH 5.5); less than 3 in data set [2] (60 °C, pH 6.5). Moreover, the PET hydrolysis in data set [2] (60 °C, pH 7.5) was less than 3; in data set [2] (60 °C, pH 8.5) it was less than 3.
As for “VPVVPAQQENPYQRGPDPTPESVEAPRGSFAIEKATIARGSVQGFGGGTIYYPTDTAEGTFGAVAISPGFTESQSAISWYGERLATQGFVVFTIDTNGGLDQPDSRADQLLAALDFLTGSSEVKDRIDASRLGVLGHSMGGGGSLSAAKKRPALQAAVPLAPWHTNSNWSDVTVPTLIVGAENDAVAPVGMHAEPFYAGLTKAPEKAYLELKGADHFVTNSPNTVIAKSTLSWLKRFIDDDTRYDQFLCPPPKPDNDISEYRDTCPN [DP051]”, the “purified protein yield per well” value in data set [1] was less than 25 µg. The PET hydrolysis in data set [2] (40 °C, pH 5.5) is less than 3; in data set [2] (40 °C, pH 6.5), less than 3; in data set [2] (40 °C, pH 7.5), less than 3; in data set [2] (40 °C, pH 8.5) it was less than 3.
